# Reference: US20150030603A1 (SAMSUNG ELECTRONICS, published 2015)
# T1: recombinant hAng-2 (C-His, R&D Systems) (human, UniProt O15123 19-496)
# T1 sequence: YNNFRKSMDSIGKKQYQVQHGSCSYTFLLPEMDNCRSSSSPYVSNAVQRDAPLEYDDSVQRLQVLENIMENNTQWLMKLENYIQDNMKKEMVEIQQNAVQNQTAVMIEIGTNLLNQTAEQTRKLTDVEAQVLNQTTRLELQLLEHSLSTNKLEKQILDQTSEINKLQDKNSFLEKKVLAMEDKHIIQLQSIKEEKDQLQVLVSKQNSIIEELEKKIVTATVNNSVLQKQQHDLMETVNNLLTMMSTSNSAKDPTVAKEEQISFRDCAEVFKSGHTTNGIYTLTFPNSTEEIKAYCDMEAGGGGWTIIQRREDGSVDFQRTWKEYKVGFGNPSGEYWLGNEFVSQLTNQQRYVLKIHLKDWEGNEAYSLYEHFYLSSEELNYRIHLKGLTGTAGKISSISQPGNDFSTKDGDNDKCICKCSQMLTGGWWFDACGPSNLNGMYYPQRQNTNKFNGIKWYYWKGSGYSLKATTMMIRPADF
# Columns and labels:
# BSA = target: T2, BSA (bovine, UniProt P02769); test: ELISA: coated BSA, FLAG-Ang2 0.25 µg/ml and 10D6 2 µg/ml, detected with anti-mouse IgG-HRP (OD450)
# T2 construct: commercial preparation (Sigma); named on the sheet under 'Coating:'; also called bovine serum albumin (Sigma); control coating
# T2 sequence (P02769 25-607 limits assumed): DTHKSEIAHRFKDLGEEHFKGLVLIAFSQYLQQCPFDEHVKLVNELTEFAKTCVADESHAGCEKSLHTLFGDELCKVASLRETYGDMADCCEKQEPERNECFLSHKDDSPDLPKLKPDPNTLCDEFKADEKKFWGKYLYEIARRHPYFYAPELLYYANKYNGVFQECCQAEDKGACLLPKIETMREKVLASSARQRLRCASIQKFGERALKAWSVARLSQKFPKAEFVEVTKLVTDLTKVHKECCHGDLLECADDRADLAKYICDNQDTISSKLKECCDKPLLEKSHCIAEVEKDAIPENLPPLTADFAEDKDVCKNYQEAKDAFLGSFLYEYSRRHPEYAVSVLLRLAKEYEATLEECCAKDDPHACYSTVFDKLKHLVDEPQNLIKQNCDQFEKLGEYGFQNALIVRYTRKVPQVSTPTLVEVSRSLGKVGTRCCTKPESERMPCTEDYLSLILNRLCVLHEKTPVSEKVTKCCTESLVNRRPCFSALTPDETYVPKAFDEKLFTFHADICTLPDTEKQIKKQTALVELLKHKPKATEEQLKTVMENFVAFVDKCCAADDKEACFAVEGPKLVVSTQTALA
# Description: A 96-well MaxiSorp™ flat-bottom plate (Nunc) was coated with 4 μg/ml of Tie2-Fc (R&D systems) or BSA (Sigma). Then, the plate was washed five times with 0.05% (v/v) Tween-20-containing PBS (Phosphate Buffer Saline) and blocked with 1% (v/v) BSA (Bovine serum albumin; Sigma)-containing PBS at a room temperature for 2 hours. 0.25 μg/ml of Ang2 and 2 μg/ml of 10D6 antibody were added to each well of the plate, which was allowed to react at a room temperature for 2 hours and then washed five times with PBST. After that, an anti-mouse IgG antibody (Sigma) conjugated with HRP diluted in 1% (v/v) BSA-containing PBS at a ratio of 1:5,000 (v/v) was added in an amount of 100 ul to each well to react at a room temperature for 1 hour and then, the plate was washed five times with PBST. Lastly, 100 ul (microliter) of TMB substrate (Cell Signaling) was added to each well of the plate to induce color development for 3 min. and then, the reaction was ceased by the addition of 100 ul of Stop solution (Cell Signaling) and OD450 values were measured on a plate reader (Molecular Devices).
# [1] = target: FLAG-tagged Ang2 RBD mutant P419A (human) (UniProt O15123); test: ELISA; 10D6 coated (1000 nM), 250 ng FLAG-tagged Ang2 RBD mutant, anti-FLAG-HRP, OD450; reference native Ang2; cell may be cut off at the left
# [2] = target: FLAG-tagged Ang2 RBD mutant at A449 (substituted with alanine (so in the source)) (human) (UniProt O15123); test: as above
# [3] = target: FLAG-tagged Ang2 RBD mutant Q418A (human) (UniProt O15123); test: as above
# [4] = target: T1, recombinant hAng-2 (C-His, R&D Systems); test: cell-based or functional assay
binder,measurement,setting,value
"FLAG-tagged hAng-2 (ligand, not shown: FLAG tag) YNNFRKSMDSIGKKQYQVQHGSCSYTFLLPEMDNCRSSSSPYVSNAVQRDAPLEYDDSVQRLQVLENIMENNTQWLMKLENYIQDNMKKEMVEIQQNAVQNQTAVMIEIGTNLLNQTAEQTRKLTDVEAQVLNQTTRLELQLLEHSLSTNKLEKQILDQTSEINKLQDKNSFLEKKVLAMEDKHIIQLQSIKEEKDQLQVLVSKQNSIIEELEKKIVTATVNNSVLQKQQHDLMETVNNLLTMMSTSNSAKDPTVAKEEQISFRDCAEVFKSGHTTNGIYTLTFPNSTEEIKAYCDMEAGGGGWTIIQRREDGSVDFQRTWKEYKVGFGNPSGEYWLGNEFVSQLTNQQRYVLKIHLKDWEGNEAYSLYEHFYLSSEELNYRIHLKGLTGTAGKISSISQPGNDFSTKDGDNDKCICKCSQMLTGGWWFDACGPSNLNGMYYPQRQNTNKFNGIKWYYWKGSGYSLKATTMMIRPADF",binding result,BSA,no binding (tested: 0.25 µg/ml)
"SAIT-ANG2-AB-m10D6 (antibody, V domains shown) VH: DVQLQESGPGLVKPSQSLSLTCTVTGYSITSDYAWNWIRQFPGNKLEWMGYINYSGNTDYNPSLKSRSSITRDTSKNQFFLQLNSVTTGDTATYYCARGNFEGAMDYWGQGTSVTVSS VL: SIVMTQTPKFLLVSAGDRVTITCKASQSVSNDVAWYQQKPGQSPKLLIYYASNRYPGVPDRFTGSGYGTDFTFTISTVQAEDLAVYFCQQDYSSPWTFGGGTKLEIK",binding affinity (%) with mutant Ang2 against the binding affinity with the native Ang2,[1],1.08%
same,binding affinity (%) with mutant Ang2 against the binding affinity with the native Ang2,[2],7.86%
same,binding affinity (%) with mutant Ang2 against the binding affinity with the native Ang2,[3],8.94%
same,Tie2 phosphorylation effect against the control antibody RG,[4],~8.6 fold against RG antibody
same,"Tie2 phosphorylation level (pTyr/Tie2 ratio) in HUVEC cells, 60 nM antibody with Ang2",[4],180 % increase against Ang2 alone
